Experimental data from patent US20160252497A1 (NGM BIOPHARMACEUTICALS, published 2016).

How the values were obtained:
[1] = target: Human FGFR4 on primary human hepatocytes (human, UniProt P22455 22-802); experiment: cell-based or functional assay
[2] = target: Mouse FGFR4 and mouse KLB co-expressed on rat L6 cells (mouse, UniProt Q03142 17-799; Q99N32 1-1043); experiment: cell-based or functional assay
[3] = target: Human FGFR4 and KLB expressed endogenously on Hep3B cells (human, UniProt P22455 22-802; Q86Z14 1-1044); experiment: cell-based or functional assay
Sequence of Human FGFR4 and KLB expressed endogenously on Hep3B cells (P22455 22-802, chain 1 of 2): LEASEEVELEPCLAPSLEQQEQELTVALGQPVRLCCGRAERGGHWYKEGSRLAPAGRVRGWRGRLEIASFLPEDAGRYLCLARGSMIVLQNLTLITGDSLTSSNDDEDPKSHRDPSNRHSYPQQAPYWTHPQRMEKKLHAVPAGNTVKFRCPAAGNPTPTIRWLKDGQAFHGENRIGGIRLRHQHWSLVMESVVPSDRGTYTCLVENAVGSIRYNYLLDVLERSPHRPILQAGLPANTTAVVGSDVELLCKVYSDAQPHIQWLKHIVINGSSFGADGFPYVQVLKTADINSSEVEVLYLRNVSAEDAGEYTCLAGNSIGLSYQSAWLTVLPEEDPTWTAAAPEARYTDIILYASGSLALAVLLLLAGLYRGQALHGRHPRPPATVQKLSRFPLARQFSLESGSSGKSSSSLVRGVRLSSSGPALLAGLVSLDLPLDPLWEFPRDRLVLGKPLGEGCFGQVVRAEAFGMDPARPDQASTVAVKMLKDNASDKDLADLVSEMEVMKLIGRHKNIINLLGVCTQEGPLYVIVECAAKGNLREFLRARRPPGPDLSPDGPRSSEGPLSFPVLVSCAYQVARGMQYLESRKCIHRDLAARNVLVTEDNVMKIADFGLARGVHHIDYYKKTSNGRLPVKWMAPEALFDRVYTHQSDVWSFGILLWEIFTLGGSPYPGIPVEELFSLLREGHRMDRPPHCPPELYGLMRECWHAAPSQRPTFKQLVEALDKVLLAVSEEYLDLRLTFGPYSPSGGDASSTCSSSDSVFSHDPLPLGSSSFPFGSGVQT
Sequence of Human FGFR4 and KLB expressed endogenously on Hep3B cells (Q86Z14 whole entry, chain 2 of 2): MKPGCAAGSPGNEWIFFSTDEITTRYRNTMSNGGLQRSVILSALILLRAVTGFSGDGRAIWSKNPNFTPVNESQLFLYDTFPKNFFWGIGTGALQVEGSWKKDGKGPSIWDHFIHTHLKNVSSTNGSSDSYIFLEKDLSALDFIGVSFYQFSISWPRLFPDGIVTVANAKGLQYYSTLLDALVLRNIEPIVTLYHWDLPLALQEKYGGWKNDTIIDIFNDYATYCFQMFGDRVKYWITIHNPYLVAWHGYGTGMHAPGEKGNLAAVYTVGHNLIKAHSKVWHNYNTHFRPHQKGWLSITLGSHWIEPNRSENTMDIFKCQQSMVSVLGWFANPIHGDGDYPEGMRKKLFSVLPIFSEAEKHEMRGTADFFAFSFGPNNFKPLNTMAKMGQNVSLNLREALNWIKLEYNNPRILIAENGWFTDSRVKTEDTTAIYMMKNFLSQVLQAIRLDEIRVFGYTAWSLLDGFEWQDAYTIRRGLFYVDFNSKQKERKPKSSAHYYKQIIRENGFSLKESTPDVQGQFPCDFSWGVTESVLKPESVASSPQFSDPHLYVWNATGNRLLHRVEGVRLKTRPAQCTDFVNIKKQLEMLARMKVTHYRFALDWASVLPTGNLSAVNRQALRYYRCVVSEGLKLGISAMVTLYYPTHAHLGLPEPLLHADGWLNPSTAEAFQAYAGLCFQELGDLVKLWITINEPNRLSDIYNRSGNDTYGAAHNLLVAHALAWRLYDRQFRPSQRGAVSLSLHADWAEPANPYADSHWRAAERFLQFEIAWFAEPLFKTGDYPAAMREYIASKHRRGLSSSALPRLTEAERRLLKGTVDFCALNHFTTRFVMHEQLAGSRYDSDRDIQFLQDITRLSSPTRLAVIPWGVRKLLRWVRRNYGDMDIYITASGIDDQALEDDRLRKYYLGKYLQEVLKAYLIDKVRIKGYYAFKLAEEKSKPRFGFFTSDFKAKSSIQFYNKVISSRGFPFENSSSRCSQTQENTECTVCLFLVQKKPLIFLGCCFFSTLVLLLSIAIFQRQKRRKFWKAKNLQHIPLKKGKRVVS

[4] = target: Rat FGFR4 on primary rat hepatocytes (rat, UniProt Q498D6 17-800); experiment: cell-based or functional assay
Sequence of Rat FGFR4 on primary rat hepatocytes (Q498D6 17-800): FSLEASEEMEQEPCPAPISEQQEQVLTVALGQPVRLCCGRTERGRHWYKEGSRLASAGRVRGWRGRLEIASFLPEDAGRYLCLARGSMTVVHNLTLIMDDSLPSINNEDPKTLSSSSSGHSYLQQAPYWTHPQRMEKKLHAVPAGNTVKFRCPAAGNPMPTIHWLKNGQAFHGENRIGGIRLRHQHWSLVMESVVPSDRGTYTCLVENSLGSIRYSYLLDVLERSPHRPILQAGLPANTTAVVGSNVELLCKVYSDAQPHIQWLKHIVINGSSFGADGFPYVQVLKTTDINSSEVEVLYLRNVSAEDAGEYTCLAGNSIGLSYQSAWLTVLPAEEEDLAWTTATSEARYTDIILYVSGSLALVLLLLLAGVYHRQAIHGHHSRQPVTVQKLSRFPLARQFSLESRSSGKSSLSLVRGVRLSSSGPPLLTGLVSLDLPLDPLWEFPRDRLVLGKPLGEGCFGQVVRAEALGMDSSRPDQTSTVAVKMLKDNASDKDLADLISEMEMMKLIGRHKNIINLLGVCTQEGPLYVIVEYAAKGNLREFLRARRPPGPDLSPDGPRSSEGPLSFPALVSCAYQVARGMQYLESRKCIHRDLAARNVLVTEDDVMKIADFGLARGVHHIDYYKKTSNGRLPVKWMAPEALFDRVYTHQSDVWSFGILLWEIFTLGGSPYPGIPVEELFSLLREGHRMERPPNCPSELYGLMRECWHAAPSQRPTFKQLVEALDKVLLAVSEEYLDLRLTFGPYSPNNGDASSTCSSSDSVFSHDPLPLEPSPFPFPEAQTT

[5] = target: T1, Mouse FGFR4 on cells (L6 cells transfected with FGFR4 alone; primary mouse hepatocytes) (mouse, UniProt Q03142 17-799); experiment: cell-based or functional assay
T1 sequence (looked up): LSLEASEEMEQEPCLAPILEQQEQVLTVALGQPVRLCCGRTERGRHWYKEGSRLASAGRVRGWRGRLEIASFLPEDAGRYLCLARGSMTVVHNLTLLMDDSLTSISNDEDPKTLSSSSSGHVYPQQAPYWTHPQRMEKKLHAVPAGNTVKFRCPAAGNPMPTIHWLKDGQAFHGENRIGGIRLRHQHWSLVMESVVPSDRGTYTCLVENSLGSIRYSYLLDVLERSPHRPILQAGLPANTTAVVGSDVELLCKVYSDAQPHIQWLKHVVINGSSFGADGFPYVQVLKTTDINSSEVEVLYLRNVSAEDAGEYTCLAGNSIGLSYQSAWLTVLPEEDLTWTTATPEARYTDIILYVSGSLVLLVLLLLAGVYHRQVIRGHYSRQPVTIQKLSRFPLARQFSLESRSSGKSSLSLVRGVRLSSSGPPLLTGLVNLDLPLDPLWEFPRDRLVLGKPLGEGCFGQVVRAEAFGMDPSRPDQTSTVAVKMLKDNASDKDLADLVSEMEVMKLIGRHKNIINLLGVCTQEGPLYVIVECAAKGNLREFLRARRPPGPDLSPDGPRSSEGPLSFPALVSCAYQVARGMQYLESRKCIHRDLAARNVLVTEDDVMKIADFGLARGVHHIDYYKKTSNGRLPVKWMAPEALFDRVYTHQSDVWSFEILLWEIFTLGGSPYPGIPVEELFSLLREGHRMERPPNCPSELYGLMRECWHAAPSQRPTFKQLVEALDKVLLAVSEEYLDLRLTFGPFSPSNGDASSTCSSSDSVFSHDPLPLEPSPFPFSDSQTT

[6] = target: FGFR4-KLB receptor complex (solid phase binding assay); experiment: solid phase binding assay on the FGFR4-KLB receptor complex; bound ligand detected with a biotinylated FGF19-specific polyclonal antibody, absorbance at 450 nm
Sequence of FGFR4-KLB receptor complex (solid phase binding assay) (chain, as listed by the source, chain 1 of 2): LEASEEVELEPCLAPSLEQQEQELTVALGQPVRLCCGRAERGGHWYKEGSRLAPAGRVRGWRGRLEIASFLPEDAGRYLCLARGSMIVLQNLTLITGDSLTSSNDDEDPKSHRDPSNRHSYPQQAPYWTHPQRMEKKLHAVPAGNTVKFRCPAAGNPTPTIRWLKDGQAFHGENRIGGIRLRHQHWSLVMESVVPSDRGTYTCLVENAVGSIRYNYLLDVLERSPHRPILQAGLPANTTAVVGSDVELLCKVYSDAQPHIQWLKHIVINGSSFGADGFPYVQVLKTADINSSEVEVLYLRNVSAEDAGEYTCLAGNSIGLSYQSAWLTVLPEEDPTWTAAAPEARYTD
Sequence of FGFR4-KLB receptor complex (solid phase binding assay) (chain, as listed by the source, chain 2 of 2): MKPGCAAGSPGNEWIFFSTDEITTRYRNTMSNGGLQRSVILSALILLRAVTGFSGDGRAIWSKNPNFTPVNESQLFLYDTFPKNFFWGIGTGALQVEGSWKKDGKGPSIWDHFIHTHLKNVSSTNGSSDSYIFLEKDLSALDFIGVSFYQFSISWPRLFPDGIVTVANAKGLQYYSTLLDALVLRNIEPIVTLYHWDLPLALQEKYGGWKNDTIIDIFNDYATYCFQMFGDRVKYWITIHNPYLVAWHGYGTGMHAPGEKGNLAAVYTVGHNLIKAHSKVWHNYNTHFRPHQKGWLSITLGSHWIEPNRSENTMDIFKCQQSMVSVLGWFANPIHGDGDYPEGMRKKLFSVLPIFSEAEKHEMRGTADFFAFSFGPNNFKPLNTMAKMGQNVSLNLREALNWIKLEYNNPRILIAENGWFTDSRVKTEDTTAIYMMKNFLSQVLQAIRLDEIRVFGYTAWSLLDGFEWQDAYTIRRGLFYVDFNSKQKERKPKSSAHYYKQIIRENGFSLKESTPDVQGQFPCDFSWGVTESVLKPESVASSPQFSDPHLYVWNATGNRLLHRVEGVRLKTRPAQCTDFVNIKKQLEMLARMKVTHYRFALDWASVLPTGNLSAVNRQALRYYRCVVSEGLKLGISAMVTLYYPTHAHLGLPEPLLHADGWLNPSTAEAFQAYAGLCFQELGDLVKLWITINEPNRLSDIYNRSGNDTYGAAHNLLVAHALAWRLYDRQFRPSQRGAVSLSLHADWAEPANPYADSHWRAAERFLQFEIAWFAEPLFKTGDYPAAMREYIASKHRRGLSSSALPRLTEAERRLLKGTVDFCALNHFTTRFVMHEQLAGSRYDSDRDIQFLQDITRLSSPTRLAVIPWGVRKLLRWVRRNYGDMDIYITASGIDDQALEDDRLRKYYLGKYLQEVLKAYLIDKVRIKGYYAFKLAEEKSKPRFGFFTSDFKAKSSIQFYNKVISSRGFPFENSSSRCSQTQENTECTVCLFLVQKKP
Text: (§1) (B) Binding of M70 to FGFR4 by Biacore. Similar procedures to (A) were used. (C) Solid phase binding of M70 or FGF19 to FGFR4-KLB receptor complex. The bound ligands were detected using a biotinylated FGF19-specific polyclonal antibody. (D) Relative luciferase activity after stimulation with M70 or FGF19 in L6 cells transiently transfected with FGFR4 in the presence or absence of KLB. (E) M70 induces ERK phosphorylation in Hep3B cells. (F) M70 repressed Cyp7a1 expression in primary hepatocytes of mouse, rat, and human origin. Relative expression of Cyp7a1 mRNA in hepatocytes were determined by qRT-PCR and normalized to 18S RNA (mouse and rat) or actin (human) mRNA levels. (G) Repression of hepatic Cyp7a1 expression by M70 in mice. 12-week-old db/db mice were injected intraperitoneally with recombinant M70 or FGF19 protein. Mice were euthanized 4 hours after dosing and hepatic Cyp7a1 expression was evaluated by qRT-PCR and normalized to 18S RNA expression. Dose response curves of Cyp7a1 repression in mice were shown. All values represent mean±SEM.
To elucidate the molecular mechanism that underline M70's inability to induce liver tumors, the interaction of M70 to the known receptor complex of FGF19 was assessed. Surface plasmon resonance (SPR) analysis was used to measure direct binding of M70 or FGF19 to FGFR4. […]

[7] = target: T2, KLB (Klotho-beta), as used in the Biacore assay; experiment: Biacore (data not shown)
T2 construct: The form of KLB in the assay is not described; also called Klotho-β

[8] = target: T3, Fc fusion protein of the extracellular domain (ECD) of FGFR4; experiment: Biacore SPR, ligand flowed over chip coated with FGFR4 ECD-Fc, steady state fit
T3 construct: extracellular domain; Immobilized on Biacore flow cells; also called FGFR4-Fc chimeric protein; FGFR4-Fc
T3 sequence (P22455 22-369): as the sequence (chain, as listed by the source, chain 1 of 2) above
Text: as §1, with “FIGS. 9A-9G depicts M70 binding and activation of FGFR4 in vitro. (A) Biacore SPR assay of the interaction between FGF19 and FGFR4-Fc chimeric proteins immobilized on flow cells. […] (B)” for “(B)”
To elucidate the molecular mechanism that underline M70's inability to induce liver tumors, the interaction of M70 to the known receptor complex of FGF19 was assessed. […]

Sequence of Human FGFR4 on primary human hepatocytes (P22455 22-802): as the sequence (P22455 22-802, chain 1 of 2) above
Sequence of Mouse FGFR4 and mouse KLB co-expressed on rat L6 cells (Q99N32 whole entry, one chain of several): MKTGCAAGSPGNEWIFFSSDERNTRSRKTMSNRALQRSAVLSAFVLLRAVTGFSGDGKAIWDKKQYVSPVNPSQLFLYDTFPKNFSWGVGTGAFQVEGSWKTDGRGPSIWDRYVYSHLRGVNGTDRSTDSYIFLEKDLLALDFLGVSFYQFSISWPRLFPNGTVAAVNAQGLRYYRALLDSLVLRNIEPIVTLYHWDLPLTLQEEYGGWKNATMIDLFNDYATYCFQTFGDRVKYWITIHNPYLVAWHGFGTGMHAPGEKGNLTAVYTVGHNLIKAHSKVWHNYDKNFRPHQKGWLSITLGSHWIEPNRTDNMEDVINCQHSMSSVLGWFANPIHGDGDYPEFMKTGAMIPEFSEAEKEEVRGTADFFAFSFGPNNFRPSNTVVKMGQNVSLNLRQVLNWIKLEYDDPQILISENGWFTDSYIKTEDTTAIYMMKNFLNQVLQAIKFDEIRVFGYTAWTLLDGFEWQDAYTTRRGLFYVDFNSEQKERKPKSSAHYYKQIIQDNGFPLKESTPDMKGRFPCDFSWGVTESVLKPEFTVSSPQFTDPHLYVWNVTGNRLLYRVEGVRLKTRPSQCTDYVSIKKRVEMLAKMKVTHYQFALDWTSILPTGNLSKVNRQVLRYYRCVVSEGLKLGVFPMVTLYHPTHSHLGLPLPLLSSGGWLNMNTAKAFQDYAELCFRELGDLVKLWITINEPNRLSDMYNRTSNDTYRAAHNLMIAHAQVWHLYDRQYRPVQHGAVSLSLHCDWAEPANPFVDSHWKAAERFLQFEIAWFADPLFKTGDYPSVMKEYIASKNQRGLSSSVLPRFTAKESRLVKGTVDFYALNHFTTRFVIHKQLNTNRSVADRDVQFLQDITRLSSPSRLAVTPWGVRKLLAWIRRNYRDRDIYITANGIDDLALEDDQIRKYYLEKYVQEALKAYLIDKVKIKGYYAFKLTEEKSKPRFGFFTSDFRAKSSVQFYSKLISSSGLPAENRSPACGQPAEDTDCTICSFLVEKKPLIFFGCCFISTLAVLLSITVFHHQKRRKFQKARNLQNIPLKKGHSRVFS

B1: M70 (FGF19 variant carrying 3 amino acid substitutions A30S, G31S, H33L and a 5-amino acid deletion) (ligand)
chain: MRDSSPLVHYGWGDPIRLRHLYTSGPHGLSSCFLRIRADGVVDCARGQSAHSLLEIKAVALRTVAIKGVHSVRYLCMGADGKMQGLLQYSEEDCAFEEEIRPDGYNVYRSEKHRLPVSLSSAKQRQLYKNRGFLPLSHFLPMLPMVPEEPEDLRGHLESDMFSSPLETDSMDPFGLVTGLEAVRSPSFEK
notes: Engineered variant of human FGF19; also called FGF19 variant M70; recombinant M70 protein
For B1, the “repression of Cyp7a1 expression in primary human hepatocytes (IC50)” value [1] was 6.8 pM, the “GAL-Elk1 luciferase reporter activity in L6 cells co-expressing FGFR4 and KLB (EC50)” value [2] was 38 pM and the “phosphorylation and activation of ERK in Hep3B cells (EC50)” value [3] was 380 pM. For the same binder, the “repression of Cyp7a1 expression in primary rat hepatocytes (IC50)” value [4] was 0.49 pM, the “GAL-Elk1 luciferase reporter activity in L6 cells transfected with FGFR4 alone (reduction in potency against FGFR4 plus KLB)” value [5] was 500 fold and the “repression of Cyp7a1 expression in primary mouse hepatocytes (IC50)” value [5] was 0.64 pM. For the same binder, the “EC50 (read off the curve)” value [6] was about 2000 pM, the Kd [7] was 24.1 pM and the Kd [8] was 134000 pM.
